# Target: full-length IRG1 from Bacillus subtilis (immune-responsive gene 1, cis-aconitate decarboxylase) (Bacillus subtilis)
# Test: SEC-MALS; Superdex 200 10/300, 20 mM Tris-HCl (pH 8.0), 150 mM NaCl, 0.4 mL/min, room temperature; DAWN-treos MALS detector
substance,measurement,value
"full-length IRG1 from Bacillus subtilis (immune-responsive gene 1, cis-aconitate decarboxylase) (enzyme)",stoichiometry N,2
